Test results from article PMC4119023.
Where a chain is given by its changes, count along the chain named. Numbers in names are those of the source.

Key:
[1] = substrate: Cc1cc(=O)oc2c(F)c(OP(=O)(O)O)c(F)cc12; assay: steady-state phosphatase assay; assay type: biochemical, Kluyveromyces lactis; conditions: 50 mM MES pH 5.5, 30 °C, 10 μM enzyme
[2] = substrate: Cc1cc(=O)oc2c(F)c(OP(=O)(O)O)c(F)cc12; assay: steady-state phosphatase assay; assay type: biochemical, Homo sapiens; conditions: 50 mM MES pH 5.5, 30 °C, 10 μM enzyme

B1: KlRtr1 NTD (Kluyveromyces lactis NRRL Y-1140) (protein)
chain: MATIEEIKEVVLKPYTNHRQLTIREVETISINLIDLLITKDVKDARTMKYISRFLTKQDYADLVQERNLVKRCGYPLCSKSQARVRDPFADVQMTNFLRQNNPYAYLTEYCTKAHFRCSQFYQFQLSDEALFARVGVHLDDYEPPSEIQLLEEVLA
[1]
  Km: 694 ± 74 µM
  kcat: 0.0015 ± 5e-05 s⁻¹

B2: hRPAP2 NTD (Homo sapiens) (protein)
chain: MADFAGPSSAGRKAGAPRCSRKAAGTKQTSTLKQEDASKRKAELEAAVRKKIEFERKALHIVEQLLEENITEEFLMECGRFITPAHYSDVVDERSIVKLCGYPLCQKKLGIVPKQKYKISTKTNKVYDITERKSFCSNFCYQASKFFEAQIPKTPVWVREEERHPDFQLLKEEQSGHSGEEVQLCSKAI
[2]
  Km: 1668 ± 205 µM
  kcat: 0.0005 ± 3e-05 s⁻¹

B3: KlRtr1 FL (Kluyveromyces lactis NRRL Y-1140) (protein)
chain: MATIEEIKEVVLKPYTNHRQLTIREVETISINLIDLLITKDVKDARTMKYISRFLTKQDYADLVQERNLVKRCGYPLCSKSQARVRDPFADVQMTNFLRQNNPYAYLTEYCTKAHFRCSQFYQFQLSDEALFARVGVHLDDYEPPSEIQLLEEVLARESDVKQMIRGMTDLKLADDDSREEMERDISDMLADIKIVEINEPNIIGDLGRDR
[1]; EDTA-treated enzyme
  Km: 587 ± 70 µM
  kcat: 0.001 ± 3e-05 s⁻¹

B4: KlRtr1 FL (Kluyveromyces lactis NRRL Y-1140; E197Q) (protein)
chain: B3 chain with E197Q
[1]; EDTA-treated enzyme
  Km: 529 ± 45 µM
  kcat: 0.0016 ± 4e-05 s⁻¹
